{"source": "patent US20210277411", "assay_in_all_cases": "cell_activity", "key": {"[1]": {"system": "TALE nuclease pair BnFAD2_T01 (synthetic construct)", "settings": "Westar protoplasts"}, "[2]": {"system": "TALE nuclease pair BnFAD2_T02 (synthetic construct)", "settings": "Westar protoplasts"}, "[3]": {"system": "TALE nuclease pair BnFAD2_T05 (synthetic construct)"}, "[4]": {"system": "TALE nuclease pair BnFAD2_T07 (synthetic construct)", "settings": "Westar protoplasts"}, "[5]": {"system": "TALE nuclease pair BnFAD2_T03 (synthetic construct)", "settings": "Westar protoplasts"}}}
{"sequence": "TCCCCCACCCTCTCCCTTACCTCGCCTGGCCCCTCTACTGGGCCTGCCA (double strand) [BnFAD2_T01 site in BnaC.FAD2.b (SEQ ID NO:15)]", "values": [{"measurement": "activity (% mutagenesis)", "setting": "[1]; BnaC.FAD2.b, mismatched site", "result": 1.9}]}
{"sequence": "TCCCTCACCCTCTCTCCTACTTCGCCTGGCCTCTCTACTGGGCCTGCCA (double strand) [BnFAD2_T01 site in BnaA/BnaC.FAD2.a (SEQ ID NO:8)]", "values": [{"measurement": "activity (% mutagenesis)", "setting": "[1]; BnaA.FAD2.a, 25 C, 2 days, half-sites not demarcated", "result": 8.3}, {"measurement": "activity (% mutagenesis)", "setting": "[1]; BnaC.FAD2.a, 25 C, 2 days", "result": 10}]}
{"sequence": "TCGTCCCTTACTTCTCCTGGAAGTACAGTCATCGACGCCACCATTCCAA (double strand) [BnFAD2_T02 site in BnaA/BnaC.FAD2.a (SEQ ID NO:9)]", "values": [{"measurement": "activity (% mutagenesis)", "setting": "[2]; BnaA.FAD2.a", "result": 9.7}, {"measurement": "activity (% mutagenesis)", "setting": "[2]; BnaC.FAD2.a", "result": 10.3}]}
{"sequence": "TCGTCCCTTACTTCTCCTGGAAGTACGGCCATCGACGCCACCATTCCAA (double strand) [BnFAD2_T02 site in BnaC.FAD2.b (SEQ ID NO:17)]", "values": [{"measurement": "activity (% mutagenesis)", "setting": "[2]; BnaC.FAD2.b", "result": 5.5}]}
{"sequence": "TCTGGGTCATAGCCCACGAGTGCGGCCACCACGCCTTCAGCGACTACCA (double strand)", "values": [{"measurement": "activity (% mutagenesis)", "setting": "[3]; BnaA.FAD2.a, Westar protoplasts", "result": 3.8}, {"measurement": "activity (% mutagenesis)", "setting": "[3]; BnaC.FAD2.a, Westar protoplasts", "result": 4.4}, {"measurement": "activity (% mutagenesis)", "setting": "[4]; BnaA.FAD2.a", "result": 2.2}, {"measurement": "activity (% mutagenesis)", "setting": "[4]; BnaC.FAD2.a", "result": 2.8}]}
{"sequence": "TCTGGGTCATCGCCCACGAATGCGGCCACCACGCCTTCAGCGACCACCA (double strand) [BnFAD2_T05/T07 site in BnaC.FAD2.b (SEQ ID NO:14)]", "values": [{"measurement": "activity (% mutagenesis)", "setting": "[3]; BnaC.FAD2.b, printed as 23 but 1549/67387 reads = 2.3", "result": 2.3}, {"measurement": "activity (% mutagenesis)", "setting": "[4]; BnaC.FAD2.b", "result": 2.6}]}
{"sequence": "TGCGAGACACCACCCTTCACTCTCGGAGACCTCAAGAAAGCAATCCCA (double strand) [BnFAD2_T03 site in BnaC.FAD2.b (SEQ ID NO:19)]", "values": [{"measurement": "activity (% mutagenesis)", "setting": "[5]; BnaC.FAD2.b", "result": 10}]}
{"sequence": "TGCGAGACACCGCCCTTCACTGTCGGAGAACTCAAGAAAGCAATCCCA (double strand) [BnFAD2_T03 site in BnaA/BnaC.FAD2.a (SEQ ID NO:10)]", "values": [{"measurement": "activity (% mutagenesis)", "setting": "[5]; BnaA.FAD2.a", "result": 9}, {"measurement": "activity (% mutagenesis)", "setting": "[5]; BnaC.FAD2.a", "result": 9.8}]}
